Measured values as given in patent publication US7994281 (EUROPEAN MOLECULAR BIOLOGY LABORATORY, dated 2011).
Numbering of substitutions follows the chain as printed. Names may count otherwise. Values belong to the binder of their own block, whether it stands above or below them.

Assays:
[1] = target: T1, DR4 (TRAIL-R1) Fc, recombinant receptor from R&D Systems (UniProt O00220 24-239, limits assumed); assay: SPR, Biacore 3000, 25 C, receptor amine-coupled to CM5 chip, ligand 2 ug/ml
T1 construct: also called soluble TRAIL-R1 Fc; not shown: Fc part of the bought Fc fusion
Experimental: (§1) Binding experiments were performed using a surface plasmon resonance-based biosensor Biacore 3000 (Biacore AB, Uppsala, Sweden), at 25° C. Recombinant receptors were ordered from R&D systems (R&D systems, Minneapolis, Minn., USA). Immobilization of the receptors on the sensor surface of a Biacore CM5 sensor chip was performed following a standard amine coupling procedure according to the manufacturer's instructions. A reference surface was generated simultaneously under the same conditions but without receptor injection and used as a blank to correct for instrument and buffer artifacts. […] Binding of ligands to the receptors was monitored in real-time. The receptor/sensor surface was regenerated using 3 M sodium acetate pH 5.2 injections.

[2] = target: T1, DR4 (TRAIL-R1) Fc, recombinant receptor …; assay: SPR (Biacore): clarified E. coli extract diluted 1:50 injected over immobilised DR4, DR5, DcR1 and RANK; bars are the response as a fraction of the DR5 response
Experimental: (§2) Control extracts of BL21 (DE3) culture without an over-expression plasmid and of a BL21 (DE3) culture with plasmid over-expressing SH3 domain were also injected.

[3] = target: T1, DR4 (TRAIL-R1) Fc, recombinant receptor …; assay: SPR, Biacore 3000, 37 C, receptor Fc on CM5 chip, ligand 0.1-250 nM
Experimental: (§3) Binding experiments were performed using a surface plasmon resonance-based biosensor Biacore 3000 (Biacore AB, Uppsala, Sweden), at 37° C. Recombinant receptors were ordered from R&D systems (R&D systems, Minneapolis, Minn., USA). […] Receptors were coated at a level of ~600-800 RU. […] Between injections the receptor/sensor surface was regenerated using 30 µl of 3 M sodium acetate pH 5.2.

[4] = target: T2, DR5 (TRAIL-R2) Fc, recombinant receptor from R&D Systems (UniProt O14763 54-182, limits assumed); assay: as above
T2 construct: also called soluble TRAIL-R2 Fc; immobilized TRAIL-R2 Fc; not shown: Fc part of the bought Fc fusion
Experimental: as §3

murine RANK (receptor) = target: T3, murine RANK (receptor) (murine, UniProt O35305 31-214, limits assumed); assay: SPR (Biacore): clarified E. coli extract diluted 1:50 injected over immobilised DR4, DR5, DcR1 and RANK; bars are the response as a fraction of the DR4 response
T3 construct: Control surface in the SPR screening
T3 sequence (looked up): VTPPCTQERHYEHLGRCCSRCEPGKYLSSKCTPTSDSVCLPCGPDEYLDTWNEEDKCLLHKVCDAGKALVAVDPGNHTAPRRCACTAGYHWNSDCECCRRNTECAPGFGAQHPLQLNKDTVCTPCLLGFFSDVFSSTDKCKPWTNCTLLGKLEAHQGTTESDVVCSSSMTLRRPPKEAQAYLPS
Experimental: as §2

[5] = target: T1, DR4 (TRAIL-R1) Fc, recombinant receptor …; assay: SPR, receptor Fc immobilised, ligand 0.1 to 250 nM
Experimental: as §3
(§4) Combinations between the stability variants and selectivity variants described above can be made, giving variants with enhanced stability and altered selectivity/specificity. […] Mutants were tested for receptor binding and biological activity as described in Examples 1, 2 and 3.

[6] = target: T2, DR5 (TRAIL-R2) Fc, recombinant receptor …; assay: SPR, receptor Fc immobilised, ligand 0.1 to 250 nM
Experimental: as §3, §4

[7] = target: T4, DcR1 (TRAIL-R3) Fc, recombinant receptor (UniProt O14798 26-221, limits assumed); assay: SPR, Biacore 3000, 37 C, receptor Fc on CM5 chip
T4 construct: not shown: Fc part of the Fc fusion
T4 sequence (looked up): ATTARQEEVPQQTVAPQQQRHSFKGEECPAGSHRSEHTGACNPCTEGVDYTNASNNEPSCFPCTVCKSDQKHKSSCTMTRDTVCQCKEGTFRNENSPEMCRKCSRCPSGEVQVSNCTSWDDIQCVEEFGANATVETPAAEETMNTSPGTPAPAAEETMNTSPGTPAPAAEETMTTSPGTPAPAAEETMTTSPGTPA
Experimental: as §3

[8] = target: T1, DR4 (TRAIL-R1) Fc, recombinant receptor …; assay: SPR, Biacore 3000, 37 C, receptor on chip, 1:1 Langmuir global fit, preliminary apparent Kd
Experimental: (§5) Binding of the purified mutants was assessed in real time using surface plasmon resonance on a Biacore 3000 with a sensor chip as described above. […] Measurements performed at 37° C. to allow increased $koff$ and dissociation was monitored for 20 min. Measured $kon$ and $koff$ rates were used to calculate apparent K_d values for the mutants for the respective receptors. A global fit procedure was used and a 1:1 Langmuir interaction model.

[9] = target: T2, DR5 (TRAIL-R2) Fc, recombinant receptor …; assay: as above
Experimental: as §5

[10] = target: T1, DR4 (TRAIL-R1) Fc, recombinant receptor …; assay: SPR (Biacore), E. coli extracts diluted 1:50 over immobilised receptor
Experimental: as §2

[11] = target: T1, DR4 (TRAIL-R1) Fc, recombinant receptor …; assay: SPR (Biacore 3000, 25 C): ligand at 2 ug/ml injected over receptor amine-coupled to a CM5 chip
Experimental: as §1

[12] = target: T1, DR4 (TRAIL-R1) Fc, recombinant receptor …; assay: SPR (Biacore 3000, 37 C): purified ligand at 60 nM over immobilised receptor Fc

T2 sequence (O14763 54-182 limits assumed): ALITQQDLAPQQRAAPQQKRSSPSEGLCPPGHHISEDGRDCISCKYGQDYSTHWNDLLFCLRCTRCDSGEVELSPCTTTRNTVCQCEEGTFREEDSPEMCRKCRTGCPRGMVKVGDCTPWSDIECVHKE
T1 sequence (O00220 24-239 limits assumed): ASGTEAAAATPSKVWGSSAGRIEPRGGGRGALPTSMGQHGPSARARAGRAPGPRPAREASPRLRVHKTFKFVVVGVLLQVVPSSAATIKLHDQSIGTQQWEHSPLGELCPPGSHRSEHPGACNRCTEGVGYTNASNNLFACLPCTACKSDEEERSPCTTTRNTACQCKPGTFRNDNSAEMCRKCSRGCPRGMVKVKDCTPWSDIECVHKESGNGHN

B1: TRAIL mutant C1 (M1 + M3: E194I, I196S, S225A) (ligand)
chain: VRERGPQRVAAHITGTRGRSNTLSSPNSKNEKALGRKINSWESSRSGHSFLSNLHLRNGELVIHEKGFYYIYSQTYFRFQIESKENTKNDKQMVQYIYKYTSYPDPILLMKAARNSCWSKDAEYGLYSIYQGGIFELKENDRIFVSVTNEHLIDMDHEASFFGAFLVG
notes: Combination of M1 and M3 on soluble TRAIL 114-281
binding result [1]: binds

B2: TRAIL mutant D218F (ligand)
chain: B1 chain with I81E, S83I, D105F, A112S
binding result [2]: binds

B3: TRAIL mutant D269R (ligand)
chain: B1 chain with I81E, S83I, A112S, D156R
fold reduction in binding relative to wild-type TRAIL [3]: > 15 fold
fold improvement in binding relative to wild-type TRAIL [4]: > 10 fold

B4: TRAIL mutant D269HE195R (ligand)
chain: B1 chain with I81E, E82R, S83I, A112S, D156H
fold reduction in binding relative to wild-type TRAIL [3]: > 15 fold
fold improvement in binding relative to wild-type TRAIL [4]: > 10 fold

B6: TRAIL mutant D269HM1 (D269H combined with M1: E194I, I196S) (ligand)
chain: B1 chain with A112S, D156H
fold reduction in binding relative to wild-type TRAIL [5]: > 8 fold
fold improvement in binding relative to wild-type TRAIL [6]: > 8 fold

B8: TRAIL mutant E155M (ligand)
chain: B1 chain with E42M, I81E, S83I, A112S
binding result [2]: binds

B9: TRAIL mutant D269H (ligand)
chain: B1 chain with I81E, S83I, A112S, D156H
fold decrease in binding compared to wild-type TRAIL [7]: ~10 fold
Kd [8]: 0.6 nM
Kd [9]: < 0.4 nM
fold reduction in binding relative to wild-type TRAIL [3]: > 15 fold
fold improvement in binding relative to wild-type TRAIL [4]: > 10 fold

B10: TRAIL mutant R149H (ligand)
chain: B1 chain with R36H, I81E, S83I, A112S
binding result [2]: binds

B11: TRAIL mutant I220M (ligand)
chain: B1 chain with I81E, S83I, I107M, A112S
binding result [2]: binds

B12: TRAIL mutant G160M (ligand)
chain: B1 chain with G47M, I81E, S83I, A112S
Kd [8]: 0.4 nM
Kd [9]: 0.5 nM
binding result (murine RANK (receptor)): no binding

B23: TRAIL mutant D269K (ligand)
chain: B1 chain with I81E, S83I, A112S, D156K
fold reduction in binding relative to wild-type TRAIL [3]: > 15 fold
fold improvement in binding relative to wild-type TRAIL [4]: > 10 fold

The remaining lines, values ahead:

binding result (murine RANK (receptor)): no binding
binding result [2]: binds
B5: TRAIL mutant D218Y (ligand)
chain: B1 chain with I81E, S83I, D105Y, A112S

binding result (murine RANK (receptor)): no binding
binding result [2]: binds
B7: TRAIL mutant D218R (ligand)
chain: B1 chain with I81E, S83I, D105R, A112S

binding result [10]: binds
B13: TRAIL mutant E195R (ligand)
chain: B1 chain with I81E, E82R, S83I, A112S

binding result [11]: binds
B14: TRAIL mutant M2 (D203I, Q205M, Y237F) (ligand)
chain: B1 chain with I81E, S83I, D90I, Q92M, A112S, Y124F
notes: Stability mutant built on soluble TRAIL 114-281

binding result [1]: binds
B15: TRAIL mutant M3 (S225A) (ligand)
chain: B1 chain with I81E, S83I
notes: as for B14

binding result (murine RANK (receptor)): no binding
binding result [2]: binds
B16: TRAIL mutant G160K (ligand)
chain: B1 chain with G47K, I81E, S83I, A112S

binding result [12]: no binding (tested: 60 nM)
B17: TRAIL mutant R191ED267R (ligand)
chain: B1 chain with R78E, I81E, S83I, A112S, D154R

binding result [2]: binds
B18: TRAIL mutant R149D (ligand)
chain: B1 chain with R36D, I81E, S83I, A112S

binding result [12]: no binding (tested: 60 nM)
B19: TRAIL mutant D269HT214R (ligand)
chain: B1 chain with I81E, S83I, T101R, A112S, D156H
notes: also called T214R-D269H

binding result (murine RANK (receptor)): no binding
binding result [2]: binds
B20: TRAIL mutant G131R (ligand)
chain: B1 chain with G18R, I81E, S83I, A112S

binding result [2]: binds
B21: TRAIL mutant I220H (ligand)
chain: B1 chain with I81E, S83I, I107H, A112S

binding result (murine RANK (receptor)): no binding
binding result [2]: binds
B22: TRAIL mutant R130E (ligand)
chain: B1 chain with R17E, I81E, S83I, A112S

binding result [11]: binds
B24: TRAIL mutant M1 (E194I, I196S) (ligand)
chain: B1 chain with A112S
notes: as for B14
